# Laboratory results from US20230068663A1.
# Key:
# Assay in all cases: flow cytometry, reporter cells, secondary antibody alone (blank)
# [1] = biological target: LILRB2 chimeric receptor on LILRB2 reporter cells (extracellular domain of LILRB2 fused with transmembrane/intracellular domains of PILRb) (UniProt Q8N423)
# LILRA2 = biological target: LILRA2
# LILRB4 = biological target: LILRB4
# LILRA5 = biological target: LILRA5
# LILRB3 = biological target: LILRB3
# LILRA4 = biological target: LILRA4
# LILRA6 = biological target: LILRA6
# LILRB5 = biological target: LILRB5
# [2] = biological target: LILRA1 on reporter cells (extracellular domain) (UniProt O75019)
# LILRA3 = biological target: LILRA3
# LILRB1 = biological target: LILRB1
# LAIR1 on reporter cells = LAIR1 on reporter cells (UniProt Q6GTX8)
# Chain of LAIR1 on reporter cells (Q6GTX8 22-165 limits assumed): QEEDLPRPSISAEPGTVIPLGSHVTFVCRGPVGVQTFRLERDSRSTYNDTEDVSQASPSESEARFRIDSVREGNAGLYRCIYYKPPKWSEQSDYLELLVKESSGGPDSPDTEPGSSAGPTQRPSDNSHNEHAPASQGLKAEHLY
# Chain of LILRA2 (chain, as listed by the source limits assumed): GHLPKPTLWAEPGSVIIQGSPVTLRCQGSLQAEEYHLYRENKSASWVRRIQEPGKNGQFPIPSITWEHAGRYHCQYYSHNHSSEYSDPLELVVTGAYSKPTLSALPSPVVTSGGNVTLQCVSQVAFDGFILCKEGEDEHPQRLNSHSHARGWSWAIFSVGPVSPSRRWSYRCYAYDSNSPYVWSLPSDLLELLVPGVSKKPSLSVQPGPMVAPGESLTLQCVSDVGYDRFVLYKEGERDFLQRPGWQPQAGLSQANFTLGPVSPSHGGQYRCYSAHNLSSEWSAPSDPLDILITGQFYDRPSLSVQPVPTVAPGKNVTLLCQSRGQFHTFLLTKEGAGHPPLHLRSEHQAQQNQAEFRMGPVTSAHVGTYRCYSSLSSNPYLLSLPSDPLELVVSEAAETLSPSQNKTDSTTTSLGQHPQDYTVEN
# Chain of LILRA1 on reporter cells (extracellular domain) (O75019 17-461 limits assumed): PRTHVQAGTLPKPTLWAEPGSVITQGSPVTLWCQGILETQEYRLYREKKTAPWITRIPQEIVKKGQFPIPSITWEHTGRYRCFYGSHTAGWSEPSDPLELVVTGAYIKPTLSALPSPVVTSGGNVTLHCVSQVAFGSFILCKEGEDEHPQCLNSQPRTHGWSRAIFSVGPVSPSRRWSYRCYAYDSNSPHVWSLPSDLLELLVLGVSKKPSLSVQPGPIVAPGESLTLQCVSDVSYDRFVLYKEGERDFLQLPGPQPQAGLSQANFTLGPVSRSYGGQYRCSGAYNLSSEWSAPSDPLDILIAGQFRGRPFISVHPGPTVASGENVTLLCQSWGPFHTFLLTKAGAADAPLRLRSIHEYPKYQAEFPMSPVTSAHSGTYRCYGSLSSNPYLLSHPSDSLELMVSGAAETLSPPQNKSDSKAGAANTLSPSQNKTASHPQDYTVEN
# Chain of LILRA3 (chain, as listed by the source limits assumed): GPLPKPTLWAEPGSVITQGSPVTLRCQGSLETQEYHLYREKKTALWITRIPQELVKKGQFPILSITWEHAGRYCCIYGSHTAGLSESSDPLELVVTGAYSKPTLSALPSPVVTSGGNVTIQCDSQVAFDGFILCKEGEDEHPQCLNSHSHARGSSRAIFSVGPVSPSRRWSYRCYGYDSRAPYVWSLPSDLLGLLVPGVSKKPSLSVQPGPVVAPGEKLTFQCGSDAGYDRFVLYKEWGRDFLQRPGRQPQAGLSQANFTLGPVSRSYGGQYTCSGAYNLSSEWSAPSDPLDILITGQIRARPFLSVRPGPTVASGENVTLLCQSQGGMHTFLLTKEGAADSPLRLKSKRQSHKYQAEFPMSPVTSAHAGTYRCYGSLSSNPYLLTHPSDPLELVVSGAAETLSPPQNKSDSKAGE
# Chain of LILRB5 (chain, as listed by the source limits assumed): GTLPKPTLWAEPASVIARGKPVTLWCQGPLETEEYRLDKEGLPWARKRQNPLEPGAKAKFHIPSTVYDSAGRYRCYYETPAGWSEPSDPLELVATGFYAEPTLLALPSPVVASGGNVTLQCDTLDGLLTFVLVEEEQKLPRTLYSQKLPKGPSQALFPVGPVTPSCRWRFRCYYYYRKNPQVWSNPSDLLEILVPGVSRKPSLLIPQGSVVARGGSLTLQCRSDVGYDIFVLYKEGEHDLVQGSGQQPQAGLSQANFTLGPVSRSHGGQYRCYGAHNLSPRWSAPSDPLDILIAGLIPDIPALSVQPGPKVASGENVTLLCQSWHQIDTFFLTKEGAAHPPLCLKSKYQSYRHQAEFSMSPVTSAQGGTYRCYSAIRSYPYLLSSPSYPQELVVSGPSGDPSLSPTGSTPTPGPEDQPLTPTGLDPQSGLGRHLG
# Chain of LILRA5 (chain, as listed by the source limits assumed): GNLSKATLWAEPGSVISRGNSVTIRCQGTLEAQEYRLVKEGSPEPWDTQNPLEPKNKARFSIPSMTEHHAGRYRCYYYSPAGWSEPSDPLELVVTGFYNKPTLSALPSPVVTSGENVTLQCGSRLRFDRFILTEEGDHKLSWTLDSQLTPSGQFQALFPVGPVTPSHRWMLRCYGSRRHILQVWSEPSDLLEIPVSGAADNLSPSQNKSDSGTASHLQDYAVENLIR
# Chain of LILRA6 (chain, as listed by the source limits assumed): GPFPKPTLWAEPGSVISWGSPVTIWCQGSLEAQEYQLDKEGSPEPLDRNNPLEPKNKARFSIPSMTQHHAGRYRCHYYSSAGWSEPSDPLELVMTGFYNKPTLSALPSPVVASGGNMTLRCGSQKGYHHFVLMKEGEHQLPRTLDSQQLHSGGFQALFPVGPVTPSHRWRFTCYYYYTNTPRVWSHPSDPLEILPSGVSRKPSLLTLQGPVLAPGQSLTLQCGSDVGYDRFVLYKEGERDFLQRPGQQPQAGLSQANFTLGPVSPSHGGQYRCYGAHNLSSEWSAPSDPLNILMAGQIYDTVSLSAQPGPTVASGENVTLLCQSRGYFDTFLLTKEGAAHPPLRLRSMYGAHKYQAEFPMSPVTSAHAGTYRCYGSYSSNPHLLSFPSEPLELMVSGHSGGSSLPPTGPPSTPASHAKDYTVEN
# Chain of LILRB1 (chain, as listed by the source limits assumed): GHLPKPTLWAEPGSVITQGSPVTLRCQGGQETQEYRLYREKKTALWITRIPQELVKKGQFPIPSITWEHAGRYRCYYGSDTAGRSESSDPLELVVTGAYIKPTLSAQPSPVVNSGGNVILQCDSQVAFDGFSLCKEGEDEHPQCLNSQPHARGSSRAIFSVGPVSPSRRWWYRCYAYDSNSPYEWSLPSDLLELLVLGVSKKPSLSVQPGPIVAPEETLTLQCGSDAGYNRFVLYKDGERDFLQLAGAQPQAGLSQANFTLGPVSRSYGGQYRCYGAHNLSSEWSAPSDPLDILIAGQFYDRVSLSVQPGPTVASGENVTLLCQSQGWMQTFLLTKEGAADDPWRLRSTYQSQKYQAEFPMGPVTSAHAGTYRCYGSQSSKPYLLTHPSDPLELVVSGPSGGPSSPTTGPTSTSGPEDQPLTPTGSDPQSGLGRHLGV
# Chain of LILRA4 (chain, as listed by the source limits assumed): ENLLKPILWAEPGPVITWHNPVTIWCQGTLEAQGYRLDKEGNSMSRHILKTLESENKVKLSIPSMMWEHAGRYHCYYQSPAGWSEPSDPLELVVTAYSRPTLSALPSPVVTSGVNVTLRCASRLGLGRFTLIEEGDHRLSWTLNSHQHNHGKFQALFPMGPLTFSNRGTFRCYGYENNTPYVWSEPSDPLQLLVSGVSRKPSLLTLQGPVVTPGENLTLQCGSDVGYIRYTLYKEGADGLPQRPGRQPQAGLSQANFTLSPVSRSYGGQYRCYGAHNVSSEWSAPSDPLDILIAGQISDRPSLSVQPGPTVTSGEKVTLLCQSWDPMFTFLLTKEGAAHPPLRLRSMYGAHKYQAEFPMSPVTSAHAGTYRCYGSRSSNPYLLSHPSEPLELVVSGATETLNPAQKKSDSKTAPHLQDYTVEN
substance,measurement,setting,value
2nd Ab (antibody),MFI,[1],10
same,MFI,LILRA2,9
same,MFI,LILRB4,13
same,MFI,LILRA5,11
same,MFI,LILRB3,9
same,MFI,LILRA4,10
same,MFI,LILRA6,10
same,MFI,LILRB5,11
same,MFI,[2],10
same,MFI,LILRA3,10
same,MFI,LILRB1,9
same,MFI,LAIR1 on reporter cells,23
